Results: patent publication US20250145694A1 (GUANGDONG FEIPENG BIOLOGICAL, published 2025)

These binders were tested against T1, CTNI quality control recombinant antigen (human, UniProt P19429 1-210, limits assumed) (assay: BLI, antibody on AMC sensor, cTnI in solution).
T1 construct: Recombinant antigen produced by the applicant; also called CTNI quality control recombinant protein (antigen produced by the company); cardiac troponin I
Description: With an AMC sensor, the purified antibody was diluted to 10 μg/ml with PBST, and CTNI quality control recombinant protein (antigen produced by the company) was gradient diluted with PBST to 769.2 nmol/ml, 384.6 nmol/ml, 192.3 nmol/ml, 96.2 nmol/ml, 48.1 nmol/ml, 24 nmol/ml, 12 nmol/ml, and 0 nmol/ml.

T1 sequence (P19429 whole entry): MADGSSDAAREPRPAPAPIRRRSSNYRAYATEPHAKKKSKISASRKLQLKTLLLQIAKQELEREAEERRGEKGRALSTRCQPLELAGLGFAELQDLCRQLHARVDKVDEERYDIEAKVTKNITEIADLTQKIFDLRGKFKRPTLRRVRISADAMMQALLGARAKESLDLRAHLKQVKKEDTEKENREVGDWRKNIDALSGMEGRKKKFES

| Binder | Kd [nM] | koff [s⁻¹] | kon [M⁻¹ s⁻¹] |
| --- | --- | --- | --- |
| Mutation 1-19 (antibody, assembled FR/CDR/constant) heavy: EVQMVESGGGLLKPGGSLKLSCAASGFTFSNYAMSWVRQTPEKRLEWVATISSGGSYSYYPDSVKGRFTISRDNAKNTLYLQMLSLRSEDTAMYYCARRDNYFGSTFMDYWGQGSSVTVSSAKTTPPSVYPLAPGSAAQTNSMVTLGCLVKGYFPEPVTVTWNSGSLSSGVHTFPAVLQSDLYTLSSSVTVPSSTWPSQTVTCNVAHPASSTKVDKKIVPRDCGCKPCICTVPEVSSVFIFPPKPKDVLTITLTPKVTCVVVDISKDDPEVQFSWFVDDVEVHTAQTKPREEQFNSTFRSVSELPIMHQDWLNGKEFKCRVNSAAFPAPIEKTISKTKGRPKAPQVYTIPPPKEQMAKDKVSLTCMITNFFPEDITVEWQWNGQPAENYKNTQPIMDTDGSYFVYSKLNVQKSNWEAGNTFTCSVLHEGLHNHHTEKSLSHSPG light: DIQMTQTSSSLSASLGDRVTISCRASQEITNYLNWYQQKPDGTIKLLIYYTSRLHSGVSSRFSGSGSGTDYSLTISNLEQEDIATYFCQQGHTLPLTFDTGTKLELKRADAAPTVSIFPPSSEQLTSGGASVVCFLNNFYPKDINVKWKIDGSERQNGVLNSWTDQDSKDSTYSMSSTLTLTKDEYERHNSYTCEATHKTSTSPIVKSFNRNEC | 8.19 | 0.000772 | 94300 |
| Mutation 1-22 (antibody, assembled FR/CDR/constant) heavy: EVQMVESGGGLLKPGGSLKLSCAASGFTYSNYAMSWVRQTPEKRLEWVATISSGGSYSFYPDSVKGRFTISRDNAKNTLYLQMLSLRSEDTAMYYCARRDNYYGSSFMDYWGQGSSVTVSSAKTTPPSVYPLAPGSAAQTNSMVTLGCLVKGYFPEPVTVTWNSGSLSSGVHTFPAVLQSDLYTLSSSVTVPSSTWPSQTVTCNVAHPASSTKVDKKIVPRDCGCKPCICTVPEVSSVFIFPPKPKDVLTITLTPKVTCVVVDISKDDPEVQFSWFVDDVEVHTAQTKPREEQFNSTFRSVSELPIMHQDWLNGKEFKCRVNSAAFPAPIEKTISKTKGRPKAPQVYTIPPPKEQMAKDKVSLTCMITNFFPEDITVEWQWNGQPAENYKNTQPIMDTDGSYFVYSKLNVQKSNWEAGNTFTCSVLHEGLHNHHTEKSLSHSPG light: DIQMTQTSSSLSASLGDRVTISCRASQDITNYLNWYQQKPDGTIKLLIYYTSRIHSGVSSRFSGSGSGTDYSLTISNLEQEDIATYFCQQGHTIPLTFDTGTKLELKRADAAPTVSIFPPSSEQLTSGGASVVCFLNNFYPKDINVKWKIDGSERQNGVLNSWTDQDSKDSTYSMSSTLTLTKDEYERHNSYTCEATHKTSTSPIVKSFNRNEC | 9.07 | 0.000312 | 34400 |
| Mutation 1-27 (antibody, assembled FR/CDR/constant) heavy: not shown light: DIQMTQTSSSLSASLGDRVTISCRASQDITNYLNWYQQKPDGTIKLLIYYTSRLHSGVSSRFSGSGSGTDYSLTISNLEQEDIATYFCQQGNTIPLTFDTGTKLELKRADAAPTVSIFPPSSEQLTSGGASVVCFLNNFYPKDINVKWKIDGSERQNGVLNSWTDQDSKDSTYSMSSTLTLTKDEYERHNSYTCEATHKTSTSPIVKSFNRNEC | 6.3 | 0.000501 | 79600 |
| Mutation 1-20 (antibody, assembled FR/CDR/constant) heavy: EVQMVESGGGLLKPGGSLKLSCAASGFTYSNYAMSWVRQTPEKRLEWVATISSGGSYSYYPDSVKGRFTISRDNAKNTLYLQMLSLRSEDTAMYYCARRDNYFGSSFMDYWGQGSSVTVSSAKTTPPSVYPLAPGSAAQTNSMVTLGCLVKGYFPEPVTVTWNSGSLSSGVHTFPAVLQSDLYTLSSSVTVPSSTWPSQTVTCNVAHPASSTKVDKKIVPRDCGCKPCICTVPEVSSVFIFPPKPKDVLTITLTPKVTCVVVDISKDDPEVQFSWFVDDVEVHTAQTKPREEQFNSTFRSVSELPIMHQDWLNGKEFKCRVNSAAFPAPIEKTISKTKGRPKAPQVYTIPPPKEQMAKDKVSLTCMITNFFPEDITVEWQWNGQPAENYKNTQPIMDTDGSYFVYSKLNVQKSNWEAGNTFTCSVLHEGLHNHHTEKSLSHSPG light: DIQMTQTSSSLSASLGDRVTISCRASQDITNYLNWYQQKPDGTIKLLIYYTSRLHSGVSSRFSGSGSGTDYSLTISNLEQEDIATYFCQQGNTLPLTFDTGTKLELKRADAAPTVSIFPPSSEQLTSGGASVVCFLNNFYPKDINVKWKIDGSERQNGVLNSWTDQDSKDSTYSMSSTLTLTKDEYERHNSYTCEATHKTSTSPIVKSFNRNEC | 2.87 | 0.000172 | 59800 |
| Mutation 1-23 (antibody, assembled FR/CDR/constant) heavy: EVQMVESGGGLLKPGGSLKLSCAASGFTFSNYAMSWVRQTPEKRLEWVATISSGGSYSYYPDSVKGRFTISRDNAKNTLYLQMLSLRSEDTAMYYCARRDNYPGSTFMDYWGQGSSVTVSSAKTTPPSVYPLAPGSAAQTNSMVTLGCLVKGYFPEPVTVTWNSGSLSSGVHTFPAVLQSDLYTLSSSVTVPSSTWPSQTVTCNVAHPASSTKVDKKIVPRDCGCKPCICTVPEVSSVFIFPPKPKDVLTITLTPKVTCVVVDISKDDPEVQFSWFVDDVEVHTAQTKPREEQFNSTFRSVSELPIMHQDWLNGKEFKCRVNSAAFPAPIEKTISKTKGRPKAPQVYTIPPPKEQMAKDKVSLTCMITNFFPEDITVEWQWNGQPAENYKNTQPIMDTDGSYFVYSKLNVQKSNWEAGNTFTCSVLHEGLHNHHTEKSLSHSPG light: DIQMTQTSSSLSASLGDRVTISCRASQEITNYLNWYQQKPDGTIKLLIYYTSRIHSGVSSRFSGSGSGTDYSLTISNLEQEDIATYFCQQGHTIPLTFDTGTKLELKRADAAPTVSIFPPSSEQLTSGGASVVCFLNNFYPKDINVKWKIDGSERQNGVLNSWTDQDSKDSTYSMSSTLTLTKDEYERHNSYTCEATHKTSTSPIVKSFNRNEC | 4.31 | 0.000336 | 77900 |
| Mutation 1-21 (antibody, assembled FR/CDR/constant) heavy: EVQMVESGGGLLKPGGSLKLSCAASGFTFSNYAMSWVRQTPEKRLEWVATISSGGSYSFYPDSVKGRFTISRDNAKNTLYLQMLSLRSEDTAMYYCARRDNYYGSTFMDYWGQGSSVTVSSAKTTPPSVYPLAPGSAAQTNSMVTLGCLVKGYFPEPVTVTWNSGSLSSGVHTFPAVLQSDLYTLSSSVTVPSSTWPSQTVTCNVAHPASSTKVDKKIVPRDCGCKPCICTVPEVSSVFIFPPKPKDVLTITLTPKVTCVVVDISKDDPEVQFSWFVDDVEVHTAQTKPREEQFNSTFRSVSELPIMHQDWLNGKEFKCRVNSAAFPAPIEKTISKTKGRPKAPQVYTIPPPKEQMAKDKVSLTCMITNFFPEDITVEWQWNGQPAENYKNTQPIMDTDGSYFVYSKLNVQKSNWEAGNTFTCSVLHEGLHNHHTEKSLSHSPG light: DIQMTQTSSSLSASLGDRVTISCRASQDITNYLNWYQQKPDGTIKLLIYYTSRIHSGVSSRFSGSGSGTDYSLTISNLEQEDIATYFCQQGHTLPLTFDTGTKLELKRADAAPTVSIFPPSSEQLTSGGASVVCFLNNFYPKDINVKWKIDGSERQNGVLNSWTDQDSKDSTYSMSSTLTLTKDEYERHNSYTCEATHKTSTSPIVKSFNRNEC | 9.55 | 0.000632 | 66200 |
| Mutation 1-25 (antibody, assembled FR/CDR/constant) heavy: EVQMVESGGGLLKPGGSLKLSCAASGFTFSNYAMSWVRQTPEKRLEWVATISSGGSYSFYPDSVKGRFTISRDNAKNTLYLQMLSLRSEDTAMYYCARRDNYFGSSFMDYWGQGSSVTVSSAKTTPPSVYPLAPGSAAQTNSMVTLGCLVKGYFPEPVTVTWNSGSLSSGVHTFPAVLQSDLYTLSSSVTVPSSTWPSQTVTCNVAHPASSTKVDKKIVPRDCGCKPCICTVPEVSSVFIFPPKPKDVLTITLTPKVTCVVVDISKDDPEVQFSWFVDDVEVHTAQTKPREEQFNSTFRSVSELPIMHQDWLNGKEFKCRVNSAAFPAPIEKTISKTKGRPKAPQVYTIPPPKEQMAKDKVSLTCMITNFFPEDITVEWQWNGQPAENYKNTQPIMDTDGSYFVYSKLNVQKSNWEAGNTFTCSVLHEGLHNHHTEKSLSHSPG light: DIQMTQTSSSLSASLGDRVTISCRASQDITNYLNWYQQKPDGTIKLLIYYTSRLHSGVSSRFSGSGSGTDYSLTISNLEQEDIATYFCQQGNTLPLTFDTGTKLELKRADAAPTVSIFPPSSEQLTSGGASVVCFLNNFYPKDINVKWKIDGSERQNGVLNSWTDQDSKDSTYSMSSTLTLTKDEYERHNSYTCEATHKTSTSPIVKSFNRNEC | 5.36 | 0.000364 | 67900 |
| Mutation 1-26 (antibody, assembled FR/CDR/constant) heavy: EVQMVESGGGLLKPGGSLKLSCAASGFTYSNYAMSWVRQTPEKRLEWVATISSGGSYSFYPDSVKGRFTISRDNAKNTLYLQMLSLRSEDTAMYYCARRDNYYGSTFMDYWGQGSSVTVSSAKTTPPSVYPLAPGSAAQTNSMVTLGCLVKGYFPEPVTVTWNSGSLSSGVHTFPAVLQSDLYTLSSSVTVPSSTWPSQTVTCNVAHPASSTKVDKKIVPRDCGCKPCICTVPEVSSVFIFPPKPKDVLTITLTPKVTCVVVDISKDDPEVQFSWFVDDVEVHTAQTKPREEQFNSTFRSVSELPIMHQDWLNGKEFKCRVNSAAFPAPIEKTISKTKGRPKAPQVYTIPPPKEQMAKDKVSLTCMITNFFPEDITVEWQWNGQPAENYKNTQPIMDTDGSYFVYSKLNVQKSNWEAGNTFTCSVLHEGLHNHHTEKSLSHSPG light: DIQMTQTSSSLSASLGDRVTISCRASQEITNYLNWYQQKPDGTIKLLIYYTSRIHSGVSSRFSGSGSGTDYSLTISNLEQEDIATYFCQQGHTLPLTFDTGTKLELKRADAAPTVSIFPPSSEQLTSGGASVVCFLNNFYPKDINVKWKIDGSERQNGVLNSWTDQDSKDSTYSMSSTLTLTKDEYERHNSYTCEATHKTSTSPIVKSFNRNEC | 1.38 | 3.48e-05 | 25200 |
| Mutation 1-24 (antibody, assembled FR/CDR/constant) heavy: EVQMVESGGGLLKPGGSLKLSCAASGFTYSNYAMSWVRQTPEKRLEWVATISSGGSYSYYPDSVKGRFTISRDNAKNTLYLQMLSLRSEDTAMYYCARRDNYFGSTFMDYWGQGSSVTVSSAKTTPPSVYPLAPGSAAQTNSMVTLGCLVKGYFPEPVTVTWNSGSLSSGVHTFPAVLQSDLYTLSSSVTVPSSTWPSQTVTCNVAHPASSTKVDKKIVPRDCGCKPCICTVPEVSSVFIFPPKPKDVLTITLTPKVTCVVVDISKDDPEVQFSWFVDDVEVHTAQTKPREEQFNSTFRSVSELPIMHQDWLNGKEFKCRVNSAAFPAPIEKTISKTKGRPKAPQVYTIPPPKEQMAKDKVSLTCMITNFFPEDITVEWQWNGQPAENYKNTQPIMDTDGSYFVYSKLNVQKSNWEAGNTFTCSVLHEGLHNHHTEKSLSHSPG light: DIQMTQTSSSLSASLGDRVTISCRASQEITNYLNWYQQKPDGTIKLLIYYTSRIHSGVSSRFSGSGSGTDYSLTISNLEQEDIATYFCQQGHTIPLTFDTGTKLELKRADAAPTVSIFPPSSEQLTSGGASVVCFLNNFYPKDINVKWKIDGSERQNGVLNSWTDQDSKDSTYSMSSTLTLTKDEYERHNSYTCEATHKTSTSPIVKSFNRNEC | 5.37 | 0.000248 | 46100 |
